Assay results taken from paper PMC9712074 (Cell Reports, 2022).

B1: BD55-3152 (antibody, V domains shown)
VH: QVQLVQSGAEVKKPGASVIVSCKASGYRFISHYIHWVRQAPGQGLEWMGKIDPSGRGTTYAQKLQGRVSVTRDTSTSSVYMALSGLRSDDTAVYYCARDRFPLSDPYVWGSPLGGLDVWGQGTTVIVSS
VL: SYDLTQPPSVSVSPGQTARITCSGDALPSQYVYWYQQRPGQAPVLVMYKDSERPPGIPERFSGSTSGTTATLTITGVQAEDEADYYCQSADASTTYHVFGGGTKVTVV
B2: BD55-3372 (antibody, V domains shown)
VH: EVHLVESGGGLVKPGGSLRLSCAASGFTFSNYAMNWVRQAPGKGLQWVSSITGSSSFIFYADSVKGRFTIVRDNAQNSLYLQMNSLRDEDTAVYYCARERDDYDTRLDWGQGTLVTVSS
VL: QPMLTQPPSVSGAPGQTVTISCVGSSSNIGAGYEVHWYQQLPGTAPKRLLSGNSDRPSGVPDRFSGSKSGTSASLAITGLQADDEADYYCQSYDSSLSLSAVVFGGGTKLTVL

Target: SARS-CoV-2 Omicron BA.1 RBD (SARS-CoV-2 Omicron BA.1, strain)

Row | Binder | binding result
1 | B1 | binds
2 | B2 | binds
